# B1: Fanconi anemia group G protein (Homo sapiens), O15287 (parent)
# chain: MSRQTTSVGSSCLDLWREKNDRLVRQAKVAQNSGLTLRRQQLAQDALEGLRGLLHSLQGLPAAVPVLPLELTVTCNFIILRASLAQGFTEDQAQDIQRSLERVLETQEQQGPRLEQGLRELWDSVLRASCLLPELLSALHRLVGLQAALWLSADRLGDLALLLETLNGSQSGASKDLLLLLKTWSPPAEELDAPLTLQDAQGLKDVLLTAFAYRQGLQELITGNPDKALSSLHEAASGLCPRPVLVQVYTALGSCHRKMGNPQRALLYLVAALKEGSAWGPPLLEASRLYQQLGDTTAELESLELLVEALNVPCSSKAPQFLIEVELLLPPPDLASPLHCGTQSQTKHILASRCLQTGRAGDAAEHYLDLLALLLDSSEPRFSPPPSPPGPCMPEVFLEAAVALIQAGRAQDALTLCEELLSRTSSLLPKMSRLWEDARKGTKELPYCPLWVSATHLLQGQAWVQLGAQKVAISEFSRCLELLFRATPEEKEQGAAFNCEQGCKSDAALQQLRAAALISRGLEWVASGQDTKALQDFLLSVQMCPGNRDTYFHLLQTLKRLDRRDEATALWWRLEAQTKGSHEDALWSLPLYLESYLSWIRPSDRDAFLEEFRTSLPKSCDL
# B2: Proline-rich protein 14 (Homo sapiens), Q9BWN1 (parent)
# chain: MDLPGDSSPPGQPRLCRQPLTRALWGARSPKRPRLQLPGAPSPLEKASRRVLAVVLEDVMAVHMVPVVPSKQTSIPQHHSYHQDPVHRQPPASPPRQAGWSSQARPPDPLCLCREPLSRIHRTSSTLRRRSRTTPGPEEGPSQKVDRAPQPTLVVMLEDIASPRPPAEGFIDETPNFIIPAQRAEPMRIVRQPTPPPGDLEPPFQPSALPADPLESPPTAPDPALELPSTPPPSSLLRPRLSPWGLAPLFRSVRSKLESFADIFLTPNKTPQPPPPSPPMKLELKIAISEAEQSGAAEGTASVSPRPPIRQWRTQDHNTPALLPKPSLGRSYSCPDLGPPGPGTCTWPPAPPQPSRPRPRRHTVGGGEMARAPPPPRPCLRKEVFPLGGVGASPSLTTSCSSTASTSFSEPAEPRLGSTKGKEPRASKDQVLSEPETKTMGKVSRFRIRRTPARPQLNLTPMGLPRPIRLNKKEFSLEEIYTNKNYQSPTTRRTFETIFEEPRERNGTLIFTSSRKLRRAVEFRDSSLPRSRRPSRGVRAAGGRTVPPNVAPSPDVGPLLQQRLEELDALLLEEETVDREQPHWT
# B3: Meiotic recombination protein DMC1/LIM15 homolog (Homo sapiens), Q14565 (parent)
# chain: MKEDQVVAEEPGFQDEEESLFQDIDLLQKHGINVADIKKLKSVGICTIKGIQMTTRRALCNVKGLSEAKVDKIKEAANKLIEPGFLTAFEYSEKRKMVFHITTGSQEFDKLLGGGIESMAITEAFGEFRTGKTQLSHTLCVTAQLPGAGGYPGGKIIFIDTENTFRPDRLRDIADRFNVDHDAVLDNVLYARAYTSEHQMELLDYVAAKFHEEAGIFKLLIIDSIMALFRVDFSGRGELAERQQKLAQMLSRLQKISEEYNVAVFVTNQMTADPGATMTFQADPKKPIGGHILAHASTTRISLRKGRGELRIAKIYDSPEMPENEATFAITAGGIGDAKE
# B4: Inhibitor of nuclear factor kappa-B kinase-interacting protein (Homo sapiens), Q70UQ0-4 (parent)
# chain: MSEVKSRKKSGPKGAPAAEPGKRSEGGKTPVARSSGGGGWADPRTCLSLLSLGTCLGLAWFVFQQSEKFAKVENQYQLLKLETNEFQQLQSKISLISEKLESTESILQEATSSMSLMTQFEQEVSNLQDIMHDIQNNEEVLTQRMQSLNEKFQNITDFWKRSLEEMNINTDIFKSEAKHIHSQVTVQINSAEQEIKLLTERLKDLEDSTLRNIRTVKRQEEEDLLRVEEQLGSDTKAIEKLEEEQHALFARDEDLTNKLSDYEPKVEECKTHLPTIESAIHSVLRVSQDLIETEKKMEDLTMQMFNMEDDMLKAVSEIMEMQKTLEGIQYDNSILKMQNELDILKEKVHDFIAYSSTGEKGTLKEYNIENKGIGGDF
# partner: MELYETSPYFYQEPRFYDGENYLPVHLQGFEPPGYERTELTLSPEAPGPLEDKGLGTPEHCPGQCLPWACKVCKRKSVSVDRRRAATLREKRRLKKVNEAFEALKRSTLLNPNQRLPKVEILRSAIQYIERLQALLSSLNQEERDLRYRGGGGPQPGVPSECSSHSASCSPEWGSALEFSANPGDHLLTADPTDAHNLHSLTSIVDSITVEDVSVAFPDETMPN
# B5: Embryonal Fyn-associated substrate (Homo sapiens), O43281 (parent)
# chain: MAIATSTQLARALYDNTAESPQELSFRRGDVLRVLQREGAGGLDGWCLCSLHGQQGIVPANRVKLLPAGPAPKPSLSPASPAQPGSPYPAPDHSNEDQEVYVVPPPARPCPTSGPPAGPCPPSPDLIYKIPRASGTQLAAPRDALEVYDVPPTALRVPSSGPYDCPASFSHPLTRVAPQPPGEDDAPYDVPLTPKPPAELEPDLEWEGGREPGPPIYAAPSNLKRASALLNLYEAPEELLADGEGGGTDEGIYDVPLLGPEAPPSPEPPGALASHDQDTLAQLLARSPPPPHRPRLPSAESLSRRPLPALPVPEAPSPSPVPSPAPGRKGSIQDRPLPPPPPRLPGYGGPKVEGDPEGREMEDDPAGHHNEYEGIPMAEEYDYVHLKGMDKAQGSRPPDQACTGDPELPERGMPAPQEALSPGEPLVVSTGDLQLLYFYAGQCQSHYSALQAAVAALMSSTQANQPPRLFVPHSKRVVVAAHRLVFVGDTLGRLAASAPLRAQVRAAGTALGQALRATVLAVKGAALGYPSSPAIQEMVQCVTELAGQALQFTTLLTSLAP
# partner: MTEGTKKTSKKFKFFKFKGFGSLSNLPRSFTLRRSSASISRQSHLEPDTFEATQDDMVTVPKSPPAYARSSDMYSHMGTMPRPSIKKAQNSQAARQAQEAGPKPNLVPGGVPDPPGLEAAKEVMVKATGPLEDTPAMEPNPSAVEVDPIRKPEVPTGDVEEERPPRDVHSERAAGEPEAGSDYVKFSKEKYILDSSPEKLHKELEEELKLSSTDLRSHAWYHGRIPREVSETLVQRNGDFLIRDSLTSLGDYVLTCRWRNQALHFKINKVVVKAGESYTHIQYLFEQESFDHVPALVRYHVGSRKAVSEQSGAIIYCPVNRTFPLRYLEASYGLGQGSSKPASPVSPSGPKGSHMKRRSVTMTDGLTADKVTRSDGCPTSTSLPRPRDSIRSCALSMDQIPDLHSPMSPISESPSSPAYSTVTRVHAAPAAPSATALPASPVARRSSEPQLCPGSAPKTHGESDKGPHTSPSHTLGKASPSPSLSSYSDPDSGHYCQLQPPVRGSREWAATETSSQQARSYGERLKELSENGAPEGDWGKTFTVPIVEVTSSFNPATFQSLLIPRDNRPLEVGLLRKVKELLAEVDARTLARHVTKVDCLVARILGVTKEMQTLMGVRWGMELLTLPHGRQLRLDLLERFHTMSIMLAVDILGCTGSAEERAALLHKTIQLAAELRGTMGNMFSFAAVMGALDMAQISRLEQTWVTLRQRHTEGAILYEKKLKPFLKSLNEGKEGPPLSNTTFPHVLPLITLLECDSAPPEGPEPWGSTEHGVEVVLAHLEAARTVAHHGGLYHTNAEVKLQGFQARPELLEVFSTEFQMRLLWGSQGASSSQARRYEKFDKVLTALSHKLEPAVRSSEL
# B6: Keratin, type I cuticular Ha3-II (Homo sapiens), Q14525 (parent)
# chain: MPYNFCLPSLSCRTSCSSRPCVPPSCHGYTLPGACNIPANVSNCNWFCEGSFNGSEKETMQFLNDRLASYLEKVRQLERDNAELENLIRERSQQQEPLLCPSYQSYFKTIEELQQKILCSKSENARLVVQIDNAKLAADDFRTKYQTEQSLRQLVESDINSLRRILDELTLCRSDLEAQMESLKEELLSLKQNHEQEVNTLRCQLGDRLNVEVDAAPAVDLNQVLNETRNQYEALVETNRREVEQWFATQTEELNKQVVSSSEQLQSYQAEIIELRRTVNALEIELQAQHNLRYSLENTLTESEARYSSQLSQVQSLITNVESQLAEIRSDLERQNQEYQVLLDVRARLECEINTYRSLLESEDCKLPSNPCATTNACEKPIGSCVTNPCGPRSRCGPCNTFGY
# B7: Caspase recruitment domain-containing protein 9 (Homo sapiens), Q9H257 (parent)
# chain: MSDYENDDECWSVLEGFRVTLTSVIDPSRITPYLRQCKVLNPDDEEQVLSDPNLVIRKRKVGVLLDILQRTGHKGYVAFLESLELYYPQLYKKVTGKEPARVFSMIIDASGESGLTQLLMTEVMKLQKKVQDLTALLSSKDDFIKELRVKDSLLRKHQERVQRLKEECEAGSRELKRCKEENYDLAMRLAHQSEEKGAALMRNRDLQLEIDQLKHSLMKAEDDCKVERKHTLKLRHAMEQRPSQELLWELQQEKALLQARVQELEASVQEGKLDRSSPYIQVLEEDWRQALRDHQEQANTIFSLRKDLRQGEARRLRCMEEKEMFELQCLALRKDSKMYKDRIEAILLQMEEVAIERDQAIATREELHAQHARGLQEKDALRKQVRELGEKADELQLQVFQCEAQLLAVEGRLRRQQLETLVLSSDLEDGSPRRSQELSLPQDLEDTQLSDKGCLAGGGSPKQPFAALHQEQVLRNPHDAGLSSGEPPEKERRRLKESFENYRRKRALRKMQKGWRQGEEDRENTTGSDNTDTEGS
# Variants of: B1
# Conditions: with mbip1_human MBIP
row,Variant,effect of a mutation on the interaction
1,T297I,with no effect

# Variants of: B1
# Conditions: with KRT15, P19012
# Sequence of KRT15, P19012 (P19012 whole entry): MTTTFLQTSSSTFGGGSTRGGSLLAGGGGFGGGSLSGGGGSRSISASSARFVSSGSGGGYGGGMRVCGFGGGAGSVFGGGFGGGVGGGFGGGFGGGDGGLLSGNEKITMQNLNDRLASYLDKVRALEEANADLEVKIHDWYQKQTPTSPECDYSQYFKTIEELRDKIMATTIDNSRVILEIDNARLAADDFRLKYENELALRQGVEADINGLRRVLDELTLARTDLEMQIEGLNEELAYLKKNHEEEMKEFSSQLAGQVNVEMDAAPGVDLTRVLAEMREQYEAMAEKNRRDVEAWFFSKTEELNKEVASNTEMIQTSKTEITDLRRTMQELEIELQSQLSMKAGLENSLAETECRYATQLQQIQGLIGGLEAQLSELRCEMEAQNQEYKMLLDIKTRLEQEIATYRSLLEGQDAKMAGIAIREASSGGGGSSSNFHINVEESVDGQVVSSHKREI
row,Variant,effect of a mutation on the interaction
1,T297I,with no effect

# Variants of: B1
# Conditions: with cenpr_human ITGB3BP
row,Variant,effect of a mutation on the interaction
1,T297I,with no effect

# Variants of: B1
# Conditions: with KRT19, P08727
# Target sequence in this assay (P08727 whole entry): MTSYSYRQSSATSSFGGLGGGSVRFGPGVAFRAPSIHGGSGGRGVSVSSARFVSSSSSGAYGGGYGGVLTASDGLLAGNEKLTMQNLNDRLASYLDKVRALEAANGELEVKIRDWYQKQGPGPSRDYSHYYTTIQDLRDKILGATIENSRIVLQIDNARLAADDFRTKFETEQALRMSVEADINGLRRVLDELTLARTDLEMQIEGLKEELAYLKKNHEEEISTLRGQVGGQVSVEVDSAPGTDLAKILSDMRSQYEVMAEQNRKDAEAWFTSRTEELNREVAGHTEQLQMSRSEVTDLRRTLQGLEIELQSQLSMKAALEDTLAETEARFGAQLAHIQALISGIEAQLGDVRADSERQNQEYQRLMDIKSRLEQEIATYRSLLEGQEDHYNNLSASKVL
row,Variant,effect of a mutation on the interaction
1,T297I,with no effect

# Variants of: B2
# Conditions: with cbx5_human CBX5, P45973
# Sequence of cbx5_human CBX5, P45973 (P45973 whole entry): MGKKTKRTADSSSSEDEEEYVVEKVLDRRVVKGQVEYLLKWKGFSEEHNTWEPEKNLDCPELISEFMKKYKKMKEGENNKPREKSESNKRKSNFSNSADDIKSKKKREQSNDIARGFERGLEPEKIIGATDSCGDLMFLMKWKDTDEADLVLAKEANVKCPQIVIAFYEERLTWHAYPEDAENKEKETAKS
row,Variant,effect of a mutation on the interaction
1,R114L,with no effect
2,P359L,with no effect

# Variants of: B3
# Conditions: with gors2_human GORASP2, Q9H8Y8
row,Variant,effect of a mutation on the interaction
1,M200V,with no effect
2,I288T,with no effect

# Variants of: B3
# Conditions: with sdcb1_human SDCBP
row,Variant,effect of a mutation on the interaction
1,M200V,disrupting interaction strength
2,I288T,disrupting interaction strength

# Variants of: B3
# Conditions: with kcd17_human KCTD17, Q8N5Z5
# Sequence of kcd17_human KCTD17, Q8N5Z5 (Q8N5Z5 whole entry): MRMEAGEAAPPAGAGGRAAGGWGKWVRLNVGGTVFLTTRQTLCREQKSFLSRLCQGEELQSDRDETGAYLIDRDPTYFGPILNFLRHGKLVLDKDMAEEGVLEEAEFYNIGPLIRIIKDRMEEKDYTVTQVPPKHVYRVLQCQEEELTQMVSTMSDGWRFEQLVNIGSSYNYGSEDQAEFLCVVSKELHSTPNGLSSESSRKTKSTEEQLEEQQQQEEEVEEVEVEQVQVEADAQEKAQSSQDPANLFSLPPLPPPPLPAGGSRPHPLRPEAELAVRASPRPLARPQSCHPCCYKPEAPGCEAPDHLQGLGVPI
row,Variant,effect of a mutation on the interaction
1,M200V,disrupting interaction strength

# Variants of: B3
# Conditions: with psa3_human PSMA3, P25788
# Sequence of psa3_human PSMA3, P25788 (P25788 whole entry): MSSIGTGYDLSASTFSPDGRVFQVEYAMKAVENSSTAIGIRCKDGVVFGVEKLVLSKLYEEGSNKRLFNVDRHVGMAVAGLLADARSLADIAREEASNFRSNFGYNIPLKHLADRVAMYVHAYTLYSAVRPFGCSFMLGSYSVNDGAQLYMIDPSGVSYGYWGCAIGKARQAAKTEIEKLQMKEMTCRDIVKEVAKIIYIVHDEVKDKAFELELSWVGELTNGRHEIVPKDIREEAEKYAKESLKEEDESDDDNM
row,Variant,effect of a mutation on the interaction
1,M200V,with no effect
2,I288T,disrupting interaction strength

# Variants of: B4
# Conditions: with myog_human MYOG
row,Variant,effect of a mutation on the interaction
1,V186G,with no effect
2,D157Y,disrupting interaction strength

# Variants of: B5
# Conditions: with sh2d3_human SH2D3C
row,Variant,effect of a mutation on the interaction
1,A140D,with no effect
2,S265F,with no effect

# Variants of: B6
# Conditions: with k2c4_human KRT4, P19013
# Sequence of k2c4_human KRT4, P19013 (P19013 whole entry): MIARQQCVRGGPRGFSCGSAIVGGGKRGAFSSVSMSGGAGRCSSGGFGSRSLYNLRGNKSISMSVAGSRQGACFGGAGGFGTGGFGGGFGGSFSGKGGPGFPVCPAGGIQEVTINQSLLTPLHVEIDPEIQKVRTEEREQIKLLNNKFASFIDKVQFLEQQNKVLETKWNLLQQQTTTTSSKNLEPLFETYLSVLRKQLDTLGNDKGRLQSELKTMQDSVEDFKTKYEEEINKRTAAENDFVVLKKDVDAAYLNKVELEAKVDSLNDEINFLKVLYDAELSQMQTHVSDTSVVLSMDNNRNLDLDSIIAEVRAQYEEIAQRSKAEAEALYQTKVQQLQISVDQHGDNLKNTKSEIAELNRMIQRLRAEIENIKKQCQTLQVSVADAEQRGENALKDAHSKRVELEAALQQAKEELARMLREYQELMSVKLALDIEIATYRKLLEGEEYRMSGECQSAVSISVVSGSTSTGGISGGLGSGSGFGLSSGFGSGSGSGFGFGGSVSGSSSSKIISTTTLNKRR
row,Variant,effect of a mutation on the interaction
1,E85K,with no effect
2,R66H,disrupting interaction strength

# More lines, now with the values ahead:
row,effect of a mutation on the interaction,Variant
1,with no effect,Q223R
2,with no effect,I318V

# Variants of: B6
# Conditions: with KRT79, Q5XKE5
# Sequence of KRT79, Q5XKE5 (Q5XKE5 whole entry): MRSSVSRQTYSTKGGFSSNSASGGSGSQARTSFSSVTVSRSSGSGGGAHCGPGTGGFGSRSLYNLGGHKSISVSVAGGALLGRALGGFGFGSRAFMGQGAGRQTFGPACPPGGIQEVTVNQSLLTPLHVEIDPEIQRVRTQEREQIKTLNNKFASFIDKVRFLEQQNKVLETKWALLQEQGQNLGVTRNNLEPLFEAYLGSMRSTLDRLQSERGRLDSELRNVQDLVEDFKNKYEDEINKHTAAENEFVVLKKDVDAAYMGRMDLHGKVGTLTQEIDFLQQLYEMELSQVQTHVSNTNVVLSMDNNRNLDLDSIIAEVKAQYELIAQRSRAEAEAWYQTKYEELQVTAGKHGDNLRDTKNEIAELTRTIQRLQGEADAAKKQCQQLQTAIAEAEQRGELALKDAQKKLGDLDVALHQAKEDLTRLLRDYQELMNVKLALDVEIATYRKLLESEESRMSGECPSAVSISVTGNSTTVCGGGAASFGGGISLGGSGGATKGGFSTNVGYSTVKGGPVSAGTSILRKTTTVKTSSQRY
row,Variant,effect of a mutation on the interaction
1,Y294D,with no effect

# Variants of: B7
# Conditions: with tri23_human TRIM23, P36406
# Sequence of tri23_human TRIM23, P36406 (P36406 whole entry): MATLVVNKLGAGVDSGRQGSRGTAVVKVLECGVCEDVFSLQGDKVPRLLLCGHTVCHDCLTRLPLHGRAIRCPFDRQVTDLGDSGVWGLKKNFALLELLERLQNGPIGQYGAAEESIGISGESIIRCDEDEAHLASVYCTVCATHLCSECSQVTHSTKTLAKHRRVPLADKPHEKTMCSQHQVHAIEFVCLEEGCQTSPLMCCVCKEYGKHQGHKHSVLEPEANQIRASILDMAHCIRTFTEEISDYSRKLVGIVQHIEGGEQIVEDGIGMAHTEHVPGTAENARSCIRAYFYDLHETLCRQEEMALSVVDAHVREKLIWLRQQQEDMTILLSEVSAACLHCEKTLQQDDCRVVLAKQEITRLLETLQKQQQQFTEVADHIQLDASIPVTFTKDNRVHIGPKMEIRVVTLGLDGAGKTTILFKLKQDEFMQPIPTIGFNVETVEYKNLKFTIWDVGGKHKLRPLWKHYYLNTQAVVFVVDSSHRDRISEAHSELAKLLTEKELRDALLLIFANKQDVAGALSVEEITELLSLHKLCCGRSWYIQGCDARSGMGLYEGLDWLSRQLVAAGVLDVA
row,Variant,effect of a mutation on the interaction
1,R173H,with no effect

# Variants of: B7
# Conditions: with KRT19, P08727
# Target sequence in this assay (P08727 whole entry): as the sequence (P08727 whole entry) above
row,Variant,effect of a mutation on the interaction
1,R173H,with no effect

# Variants of: B7
# Conditions: with KIAA0408, Q6ZU52
# Sequence of KIAA0408, Q6ZU52 (Q6ZU52 whole entry): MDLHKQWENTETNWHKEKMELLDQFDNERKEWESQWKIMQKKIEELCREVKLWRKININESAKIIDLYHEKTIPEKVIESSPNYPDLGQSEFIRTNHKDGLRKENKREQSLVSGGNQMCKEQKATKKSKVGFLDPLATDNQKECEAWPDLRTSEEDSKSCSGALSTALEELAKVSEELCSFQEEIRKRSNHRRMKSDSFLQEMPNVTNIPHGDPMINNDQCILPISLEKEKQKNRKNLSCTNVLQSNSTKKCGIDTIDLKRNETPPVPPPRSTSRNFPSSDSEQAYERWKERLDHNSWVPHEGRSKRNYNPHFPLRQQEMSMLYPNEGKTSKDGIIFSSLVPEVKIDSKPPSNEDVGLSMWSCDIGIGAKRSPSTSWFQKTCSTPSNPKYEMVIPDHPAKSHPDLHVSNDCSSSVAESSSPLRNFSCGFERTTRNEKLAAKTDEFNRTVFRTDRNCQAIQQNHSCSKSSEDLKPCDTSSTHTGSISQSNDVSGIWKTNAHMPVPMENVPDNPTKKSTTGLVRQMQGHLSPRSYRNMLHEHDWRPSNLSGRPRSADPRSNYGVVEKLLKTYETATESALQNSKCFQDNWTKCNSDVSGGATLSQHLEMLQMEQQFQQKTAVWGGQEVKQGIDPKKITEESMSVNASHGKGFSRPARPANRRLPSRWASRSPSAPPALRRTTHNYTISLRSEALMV
row,Variant,effect of a mutation on the interaction
1,S12N,with no effect
